Our source for the Kd values is paper PMC13276077.

Common to all, as to test: EMSA
(A gel shift assay detects complexes by their altered migration in electrophoresis.)

In data set [1] the target is MeCP2 full-length, e2 isoform (Homo sapiens) (UniProt P51608). The settings on record: EMSA: 20 mM HEPES pH 7.5, 75 mM NaCl, 125 mM KCl, 50 uM EDTA, 2.5 mM beta-mercaptoethanol, 5% glycerol, BSA, 1.58 uM 47 bp competitor DNA (absent in free DNA …).
The target of data set [2] is MeCP2 MBD (Homo sapiens) (UniProt P51608). The conditions noted are these: EMSA: 20 mM HEPES pH 7.5, 75 mM NaCl, 125 mM KCl, 50 uM EDTA, 2.5 mM beta-mercaptoethanol, 5% glycerol, BSA, 1.58 uM 47 bp competitor DNA (absent in free DNA …).
Data set [3] concerns the target MeCP2 R133G R133G (Homo sapiens) (UniProt P51608). The settings on record: apparent, competitor DNA, EMSA: 20 mM HEPES pH 7.5, 75 mM NaCl, 125 mM KCl, 50 uM EDTA, 2.5 mM beta-mercaptoethanol, 5% glycerol, BSA, 1.58 uM 47 bp competitor DNA (absent in free DNA …).
[4] abbreviates: apparent, no competitor DNA, meCpG at -1.

pKd: −log10 of the molar value.

In general, pKd refers to −log10 of the Kd, conventionally taken in molar units.

As to “ATGGAACACATTGCACAGGATGTATATATCTGACACGTGCCTGGAGACTAGGGAGTAATCCCCTTGGCGGTTAAAACGCGGGGGACAGCGCGTACGTGCGTTTAAGCGGTGCTAGAGCTGTCTACGACCAATTGAGCGGCCTCGGCACCGGGATTCTCCAGGGCGGCCGCGTATT (double strand) [15-N601-15 nucleosome 81 meCpA]”, the pKd in data set [1] (apparent, H1.0 1-97 prebound, competitor DNA, linker meCpA 81 bp from dyad) was 6.42; in data set [1] (apparent, H1.0 25-97 prebound, competitor DNA, linker meCpA 81 bp from dyad) it was 6.53. For the sequence “ATGGAACACATTGCACAGGATGTATATATCTGACACGTGCCTGGAGACTAGGGAGTAATCCCCTTGGCGGTTAAAACGCGGGGGACAGCGCGTACGTGCGTTTAAGCGGTGCTAGAGCTGTCTACGACCAATTGAGCGGCCTCGGCACCGGGATTCTCCAGGGCGGCCGCGTATT (double strand) [15-N601-15 nucleosome -1 meCpG]”, the figures for the pKd in data set [2] (meCpG at -1), in data set [3] (meCpG at -1) and in data set [1] (meCpG at -1) were 6.09, 6.28 and 6.89, respectively. As for “ATGGAACACATTGCACAGGATGTATATATCTGACACGTGCCTGGAGACTAGGGAGTAATCCCCTTGGCGGTTAAAACGCGGGGGACAGCGCGTACGTGCGTTTAAGCGGTGCTAGAGCTGTCTACGACCAATTGAGCGGCCTCGGCACCGGGATTCTCCAGGGCGGCCGCGTATT (double strand) [15-N601-15 nucleosome -61 meCpG]”, the pKd in data set [2] (meCpG at -61 (GGCACCGGGATT)) was 6.09; in data set [3] (meCpG at -61 (GGCACCGGGATT)) it was 6.27; in data set [1] (meCpG at -61 (GGCACCGGGATT)) it was 6.86.

Turning to “CAGGATGTATATATCTGACACGTGCCTGGAGACTAGGGAGTAATCCCCTTGGCGGTTAAAACGCGGGGGACAGCGCGTACGTGCGTTTAAGCGGTGCTAGAGCTGTCTACGACCAATTGAGCGGCCTCGGCACCGGGATTCTCCA (double strand) [N601 nucleosome core particle -1 meCpG]”, the pKd in data set [2] (setting [4]) is 7.29; in data set [1] (setting [4]), 7.35. As to “CGGTACCTCGCGAATGCATCTAATGGAACACATTGCACAGGATGTATATATCTGACACGTGCCTGGAGACTAGGGAGTAATCCCCTTGGCGGTTAAAACGCGGGGGACAGAACGCCGGTGCGTTTAAGCGGTGCTAGAGCTGTCTACGACCAATTGAGCGGCCTGCGCACAGGGATTCTCCAGGGCGGCCGCGTATTGGATCCCGAGCC (double strand) [37-N601(mod)-27 nucleosome -6 meCpG]”, the pKd in data set [1] (meCpG at -6) is 7.24. “CGGTACCTCGCGAATGCATCTAATGGAACACATTGCACAGGATGTATATATCTGACACGTGCCTGGAGACTAGGGAGTAATCCCCTTGGCGGTTAAAACGCGGGGGACAGAACGCCGGTGCGTTTAAGCGGTGCTAGAGCTGTCTACGACCAATTGAGCGGCCTGCGCACAGGGATTCTCCAGGGCGGCCGCGTATTGGATCCCGAGCC (double strand) [37-N601(mod)-27 nucleosome -56 meCpG]” gave a pKd in data set [1] (meCpG at -56) of 7.25.

“CGGTACCTCGCGAATGCATCTAATGGAACACATTGCACAGGATGTATATATCTGACACGTGCCTGGAGACTAGGGAGTAATCCCCTTGGCGGTTAAAACGCGGGGGACAGAACGCCGGTGCGTTTAAGCGGTGCTAGAGCTGTCTACGACCAATTGAGCGGCCTGCGCACAGGGATTCTCCAGGGCGGCCGCGTATTGGATCCCGAGCC (double strand) [37-N601(mod)-27 nucleosome unmethylated]” showed a pKd in data set [1] of 7.09.

In data set [1] (meCpG at +61), “CGGTACCTCGCGAATGCATCTAATGGAACACATTGCACAGGATGTATCCGGCTGACACGTGCCTGGAGACTAGGGAGTAATCCCCTTGGCGGTTAAAACGCGGGGGACAGAGCGTACGTGCGTTTAAGCGGTGCTAGAGCTGTCGCGCCCCAATTGAGCGGCCTCGGCACAGGGATTCTCCAGGGCGGCCGCGTATTGGATCCCGAGCC (double strand) [37-N601(mod2)-27 nucleosome +61 meCpG]” gave a pKd of 7.21. As for “CGGTACCTCGCGAATGCATCTAATGGAACACATTGCACAGGATGTATCCGGCTGACACGTGCCTGGAGACTAGGGAGTAATCCCCTTGGCGGTTAAAACGCGGGGGACAGAGCGTACGTGCGTTTAAGCGGTGCTAGAGCTGTCGCGCCCCAATTGAGCGGCCTCGGCACAGGGATTCTCCAGGGCGGCCGCGTATTGGATCCCGAGCC (double strand) [37-N601(mod2)-27 nucleosome -36 meCpG]”, the negative logarithm of the Kd (pKd) in data set [1] (meCpG at -36) was 7.15. For the sequence “CGGTACCTCGCGAATGCATCTAATGGAACACATTGCACAGGATGTATCCGGCTGACACGTGCCTGGAGACTAGGGAGTAATCCCCTTGGCGGTTAAAACGCGGGGGACAGAGCGTACGTGCGTTTAAGCGGTGCTAGAGCTGTCGCGCCCCAATTGAGCGGCCTCGGCACAGGGATTCTCCAGGGCGGCCGCGTATTGGATCCCGAGCC (double strand) [37-N601(mod2)-27 nucleosome unmethylated]”, the negative logarithm of the Kd (pKd) in data set [1] was 7.04. On to “GAGCCACAAAACCGGCGACGCTCACGGGTGCCCAGTTCGCGCGCCCACCTACCGTGTGAAGTCGTCACTCGGGCTTCTAAGTACGCTTAGCGCACGGTAGAGCGCAATCCAAGGCTAACCACCGTGCATCGATGTTGAAAGAGGCCCTCCGTCCTTATTACTTCAAGTCCCTGGGGTACCCGTTTCACTGCCA (double strand) [16-N603-30 +91 CG nucleosome 91 meCpG]”, for which, in data set [1] (meCpG at 91), the pKd is 7.15. With “GAGCCACAAAATCACCGACGCCCGGGGGTGCCCAGTTCGCGCGCCCACCTACCGTGTGAAGTCGTCACTCGGGCTTCTAAGTACGCTTAGCGCACGGTAGAGCGCAATCCAAGGCTAACCACCGTGCATCGATGTTGAAAGAGGCCCTCCGTCCTTATTACTTCAAGTCCCTGGGGTACCCGTTTCACTGCCA (double strand) [16-N603-30 +81 CG nucleosome 81 meCpG]”, the pKd in data set [1] (meCpG at 81) is 7.18. Regarding “GAGCCACAAAATCACCGACGCTCACGGGTGCCCAGTTCGCGCGCCCACCTACCGTGTGAAGTCGTCACTCGGGCTTCTAAGTACGCTTAGCGCACGGTAGAGCGCAATCCAAGGCTAACCACCGTGCATCGATGTTGAAAGAGGCCCTCCGTCCTTATTACTTCAAGTCCCTGGGGTACCCGTTTCACTGCCA (double strand) [16-N603-30 nucleosome 81 meCpA]”, the results for the pKd in data set [2] (asymmetric meCpA at 81) and in data set [1] (asymmetric meCpA at 81) were 6.57 and 7.19, respectively.
